US20240182536A1 (MURAL ONCOLOGY, published 2024)
Changes are numbered by the printed parent chain. Numbers in names are those of the source. Read-outs that look alike come from different tables or passages of the source.

Tests used:
[1] = target: T1, IL-18 receptor (IL-18Rα and IL-18Rβ) (UniProt Q13478 19-541; O95256 20-599, limits assumed); test: cell-based or functional assay
T1 sequence (looked up) 1: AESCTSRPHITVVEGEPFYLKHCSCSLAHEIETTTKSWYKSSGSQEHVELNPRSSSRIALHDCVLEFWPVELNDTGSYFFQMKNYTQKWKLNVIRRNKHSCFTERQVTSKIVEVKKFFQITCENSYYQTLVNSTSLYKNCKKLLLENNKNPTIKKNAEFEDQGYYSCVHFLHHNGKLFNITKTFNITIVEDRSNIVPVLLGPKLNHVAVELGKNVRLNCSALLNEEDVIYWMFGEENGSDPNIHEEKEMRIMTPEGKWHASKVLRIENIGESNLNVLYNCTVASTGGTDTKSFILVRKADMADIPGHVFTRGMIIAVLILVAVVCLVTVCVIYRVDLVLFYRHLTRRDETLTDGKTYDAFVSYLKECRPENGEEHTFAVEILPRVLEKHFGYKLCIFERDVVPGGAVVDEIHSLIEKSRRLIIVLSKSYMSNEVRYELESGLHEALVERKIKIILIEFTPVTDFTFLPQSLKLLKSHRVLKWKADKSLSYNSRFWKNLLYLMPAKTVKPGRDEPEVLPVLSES
T1 sequence (looked up) 2: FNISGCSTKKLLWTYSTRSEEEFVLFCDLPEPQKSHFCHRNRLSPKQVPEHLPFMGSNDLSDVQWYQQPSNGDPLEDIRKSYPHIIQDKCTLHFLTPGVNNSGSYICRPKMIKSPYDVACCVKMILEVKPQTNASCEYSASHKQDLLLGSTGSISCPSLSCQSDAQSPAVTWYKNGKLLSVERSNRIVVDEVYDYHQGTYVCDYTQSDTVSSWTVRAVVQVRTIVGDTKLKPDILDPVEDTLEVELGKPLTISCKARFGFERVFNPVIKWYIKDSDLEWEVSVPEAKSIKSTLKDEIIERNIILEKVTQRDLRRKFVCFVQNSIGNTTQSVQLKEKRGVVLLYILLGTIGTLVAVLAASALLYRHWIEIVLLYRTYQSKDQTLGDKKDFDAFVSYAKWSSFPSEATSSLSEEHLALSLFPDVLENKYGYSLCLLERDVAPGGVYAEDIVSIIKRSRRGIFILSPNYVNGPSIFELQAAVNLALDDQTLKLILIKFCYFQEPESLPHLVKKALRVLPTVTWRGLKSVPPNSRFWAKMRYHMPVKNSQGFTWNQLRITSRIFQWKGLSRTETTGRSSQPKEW

[2] = target: T2, IL-18 receptors on HEK-Blue IL-18 reporter cells (InvivoGen) (UniProt Q13478 19-541; O95256 20-599); test: cell-based or functional assay
T2 sequence (looked up) 1: T1 sequence (looked up) 1
T2 sequence (looked up) 2: T1 sequence (looked up) 2

[3] = target: T3, human IL-18 binding protein (IL-18BP) (human, UniProt O95998 31-194); test: cell-based or functional assay
T3 sequence (looked up): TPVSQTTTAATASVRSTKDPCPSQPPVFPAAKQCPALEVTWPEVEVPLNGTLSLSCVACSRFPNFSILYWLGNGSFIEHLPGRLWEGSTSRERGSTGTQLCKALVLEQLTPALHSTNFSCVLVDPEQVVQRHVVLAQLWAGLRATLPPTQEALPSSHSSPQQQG

[4] = target: T2, IL-18 receptors on HEK-Blue IL-18 …; test: cell-based or functional assay; remark: listed apart in the source
[5] = target: T3, human IL-18 binding protein (IL-18BP); test: cell-based or functional assay; remark: listed apart in the source
[6] = target: T3, human IL-18 binding protein (IL-18BP); test: Octet BLI
[7] = target: T4, human IL-18R alpha/beta pair (IL-18Rab) (human, UniProt Q13478 19-329; O95256 20-356); test: Octet BLI
T4 construct: also called hu IL-18Rab
T4 sequence (looked up) 1: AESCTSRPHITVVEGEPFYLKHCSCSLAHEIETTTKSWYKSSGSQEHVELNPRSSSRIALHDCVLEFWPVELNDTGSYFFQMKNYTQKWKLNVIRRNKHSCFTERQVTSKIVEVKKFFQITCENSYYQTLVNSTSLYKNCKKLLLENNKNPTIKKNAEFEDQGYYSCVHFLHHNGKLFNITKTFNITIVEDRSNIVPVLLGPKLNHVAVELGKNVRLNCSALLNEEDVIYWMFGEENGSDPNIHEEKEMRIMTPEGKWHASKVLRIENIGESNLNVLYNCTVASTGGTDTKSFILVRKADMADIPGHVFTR
T4 sequence (looked up) 2: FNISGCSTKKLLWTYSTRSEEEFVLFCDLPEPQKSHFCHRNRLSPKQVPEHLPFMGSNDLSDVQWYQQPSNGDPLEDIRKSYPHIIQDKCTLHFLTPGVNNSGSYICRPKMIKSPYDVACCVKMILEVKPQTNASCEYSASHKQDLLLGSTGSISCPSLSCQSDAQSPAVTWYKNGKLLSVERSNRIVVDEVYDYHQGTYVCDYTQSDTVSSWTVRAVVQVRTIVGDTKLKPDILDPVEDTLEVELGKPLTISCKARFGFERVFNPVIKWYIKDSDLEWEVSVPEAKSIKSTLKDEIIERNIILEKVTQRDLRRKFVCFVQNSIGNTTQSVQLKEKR

[8] = target: T3, human IL-18 binding protein (IL-18BP); test: Octet BLI; remark: listed apart in the source
[9] = target: T5, human IL-18 receptor alpha (IL-18Rα) (human, UniProt Q13478 19-329, limits assumed); test: Octet BLI
T5 construct: also called hu IL-18Ra; IL-18R alpha
T5 sequence (looked up): T4 sequence (looked up) 1

[10] = target: T4, human IL-18R alpha/beta pair (IL-18Rab); test: Octet BLI; remark: listed apart in the source
Method: (§1) Octet 96red instrument was used to determine affinities of IL18 proteins to BP or receptors. 5-10 ug/ml analyte proteins were used for loading on Sartorius tips (AHC or SA). […] 120-180 s loading, 200 s association and 800 s dissociation were used for kinetics. 3-7 data points were used to calculate affinities.

[11] = target: T3, human IL-18 binding protein (IL-18BP); test: Octet BLI; remark: listed apart in the source
Method: as §1

[12] = target: T5, human IL-18 receptor alpha (IL-18Rα); test: Octet BLI; remark: listed apart in the source
Method: as §1

[13] = target: T1, IL-18 receptor (IL-18Rα and IL-18Rβ); test: cell-based or functional assay; remark: listed apart in the source
[14] = target: T3, human IL-18 binding protein (IL-18BP); test: cell-based or functional assay; remark: listed apart in the source
[15] = target: T2, IL-18 receptors on HEK-Blue IL-18 …; test: cell-based or functional assay; remark: listed apart in the source
[16] = target: T3, human IL-18 binding protein (IL-18BP); test: cell-based or functional assay; remark: listed apart in the source
[17] = target: T2, IL-18 receptors on HEK-Blue IL-18 …; test: cell-based or functional assay; remark: listed apart in the source
[18] = target: T3, human IL-18 binding protein (IL-18BP); test: cell-based or functional assay; remark: listed apart in the source
[19] = target: T6, human IL-18 binding protein (human, UniProt O95998 31-194); test: cell-based or functional assay
T6 sequence (looked up): T3 sequence (looked up)

[20] = target: T7, IL-18 receptors on HEK-Blue IL-18 reporter cells (UniProt Q13478 19-541; O95256 20-599, limits assumed); test: cell-based or functional assay
T7 sequence (looked up) 1: T1 sequence (looked up) 1
T7 sequence (looked up) 2: T1 sequence (looked up) 2

B1: IL-18 variant G3R, K53S (ligand)
chain: YFRKLESKLSVIRNLNDQVLFIDQGNRPLFEDMTDSDMRDNAPRTIFIISMYSDSQPRGMAVTISVKSEKISTLSSENKIISFKEMNPPDNIKDTKSDIIFFQRSVPGHDNKMQFESSSYEGYFLASEKERDLFKLILKKEDELGDRSIMFTVQNED
EC50 pM, IFN gamma expression in PBMCs [1]: 73.8 pM
HEK-Blue Activity Assay Ec50 (pM), -hu IL-18BP [2]: 0.31 pM
HEK-Blue Activity Assay Ec50 (pM), +50 nM hu IL-18BP [3]: 1.84 pM
HEK-Blue Ec50 (pM), -IL-18BP [4]: 0.31 pM
HEK-Blue Ec50 (pM), +IL-18BP (50 nM) [5]: 1.84 pM
Kd [6]: 4 nM
koff [6]: 0.00143 s⁻¹
kon [6]: 356000 M⁻¹ s⁻¹
Kd [7]: 0.09 nM
Kd [8]: 4.03 nM
Kd [9]: 197 nM

B2: IL-18 variant G3T, M60K, D157E (ligand)
chain: B1 chain with R3T, S53K, M60K, D157E
Kd [10]: 0.1 nM
Kd [11]: 686 nM
Kd [12]: 693 nM
HEK-Blue Activity Assay Ec50 (pM), -hu IL-18BP [2]: 0.62 pM
HEK-Blue Activity Assay Ec50 (pM), +50 nM hu IL-18BP [3]: 0.65 pM
EC50 pM, IFN gamma expression in PBMCs, no BP [13]: 127 pM
EC50 pM, IFN gamma expression in PBMCs, + 300 nM BP [14]: 323 pM
HEK-Blue EC50 pM, NO BP (50 nM BP run) [15]: 0.62 pM
HEK-Blue EC50 pM, NO BP (300 nM BP run) [15]: 0.75 pM
Fold Change (BP/NO BP), 50 nM BP [16]: 1.05 fold
Fold Change (BP/NO BP), 300 nM BP [16]: 3.69 fold
HEK-Blue EC50 pM, +50 nM BP [16]: 0.65 pM
HEK-blue EC50 (pM) + 300 nM BP [16]: 2.77 pM
HEK-Blue Activity Assay Ec50 (pM), -hu IL-18BP [17]: 0.75 pM
HEK-Blue Activity Assay Ec50 (pM), +300 nM hu IL-18BP [18]: 2.77 pM
Kd [7]: 0.1 nM
Kd [8]: 686 nM
Kd [9]: 693 nM

B3: G3T/M60K-monospecific KiH (Fc fusion)
chain: B1 chain with R3T, S53K, M60K
HEK-blue EC50 (pM) + 300 nM IL-18BP [19]: 2.64 pM
HEK-blue EC50 (pM) - IL-18BP [20]: 0.27 pM

B4: G3T/E6K/K53A-monospecific KiH (Fc fusion)
chain: B1 chain with R3T, E6K, S53A
HEK-blue EC50 (pM) + 300 nM IL-18BP [19]: 1.16 pM
HEK-blue EC50 (pM) - IL-18BP [20]: 0.04 pM

B5: G3V/M60K-monospecific KiH (Fc fusion)
chain: B1 chain with R3V, S53K, M60K
HEK-blue EC50 (pM) + 300 nM IL-18BP [19]: 2.01 pM
HEK-blue EC50 (pM) - IL-18BP [20]: 0.06 pM
